Test results from the domain aggregation screens of Martell et al. (2025).

Assay: soluble fraction after stress (log2 fold change); higher = more stays soluble; pooled small domains, quantitative proteomics
Details: stress: 75 degC
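Also: 20 min heating vs room temperature control held 20 min.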

| Sequence | soluble fraction (log2) |
| --- | --- |
| HMSVIETLLSDREREVLTHLVNGYDAKRIAEITGISTLTVRKHIANIYTKLHVNSKAQVISMAHKNKWF | -2.7 |
| HMSVIKERLTEFLTYKGIGQIKFAEAAGLSRGFVNVLGDGISSKSLNKISQAFPELNTLWLTTGEGEML | -1.72 |
| HMSVKTIRKTEFAKRLYSLMLEKNWNQSDLARASGMGRDSVSQYIRANNTPSPQNLKKLAEALGVEPVELY | -2.05 |
| HMSVKYLQIYHAIREKILSNEYAINQQLPDEITLTKEFNSSRMTVKKALDLLVSEGLIFRKRGQGTFVLSR | -3.67 |
| HMSVLDEVRKLSFHQRNAVFLFYFEGYSMKEIAQIFHVKEGTVSSWLTRARKQLRKQMEEEVLYDESLP | -0.473 |
| HMSVLLDDLSPREREILQLVVEGHSSTKIAGMLGLASATVDTYRSRLMAKLHIDNLPDLVRFAIRHGLIS | -2.46 |
| HMSVLLKEEGSLQLARHGAAYFIIYSAQEHPNQRRHLKISEEESNRIMEGTPIEEIFLAYSG | -1.67 |
| HMSVLQGLIESFKAGDRNLYEVAERLNVTEPFLAEALKDYRARFPKGVQVDNFWISFRPYLTIAEV | -1.17 |
| HMSVNEKVRLFRELNQWSQEEMAERMNMSVAGYAKIERGETNISLHKLKQIASVLQIDLLDLVS | -2.1 |
| HMSVPEAAERAIDVAQMRRALGELSPEQQRVLELAYFGGLTRQEIARATGTPLGTVHTRARLGLQNLRARL | -0.306 |
| HMSVPRVWTDIQGRRVKGDFEGLRGDLVVLRVGGKSYAFPLVRLIASDQAYARSLVAGNPSK | -1.5 |
| HMSVPSLVGKTDSEAQSAIKSAGLKVGTVTYQYSDETEKGYVVSQSPYSGNKVNAGSTVNIVVSKGK | 0.0467 |
| HMSVPSVAAVREQTGLSQVKFASLLGVSVRTLQEWEQGRRAPSGAARTLLMVAAKNPQALLEV | -1.31 |
| HMSVSVEEDADGRVWVYYQDQKMDITDLFDENGVYGFNLEKGDRTVYVEVTKNADGTYSFTQTD | 0.427 |
| HMSVTIENQINTYFQTRDKISRDELVALIKKDFANWTDNTINIYVSSLQKRGIIHSLSRGMYALGN | -4.25 |
| HMSVTYRLLITSSPGQAEVFLDGKRVGITPFSARLAAGWYQVRVSKEGYNLWEQHVQLREDQRLTATLT | -3.17 |
| HMSWAAQVVDKMTNDQLIKSLNEIVNTGKQLGLDITVEQNGDKNFIMTVKDSKGNVQLVTPIG | 0.108 |
| HMSWEQELIEKANEIIDLYPEKRSALGPLLYLAQERDGYISDESIVEISNLVGITEVQVKSVASFYSMYK | -3.62 |
| HMSWNIHEAVEYYKGQDAPQNQFALVELLKEVQEHNGGVLTDIAVEEIAALLNTKVTFLNAVIKRYPSLK | -0.661 |
| HMSYEDLIQAVSGHFGIEIRALLSEDRKKENMIPRQVAMYLLKNKLHYTYERIGNIFSGRNHTAVMYSV | -0.263 |

| Sequence | soluble fraction (log2) |
| --- | --- |
| HMSYGKVQFVIDAKDAVLSIDGKETDYEKPVKLTYGSHTITVYSSDYDTWKRNLYVNSEKSTVVINLA | -3.13 |
| HMSYKDIKEASDTGTYRDEENNIDVKWQKLFNGHNEYFDIEAYRDGERVEINNQQADRYIYLIKQEMD | 0.678 |
| HMSYPEIFQSLTEREQKIADMIAEHLSNKEIAEKMFLSEGTIKQYINQIYSKLQITGDIRNKRKQLIELFH | -1.62 |
| HMSYTPGQWVEASMPNATFFRIVPSGNATADKMLAVATPMKVISTSGTYVKVELDSGDVGFVPEIMV | -0.199 |
| HMTAEASELRERIRAAMATLPPAQQRVIELAYFEGLTQREIAALLNEPLGTIKTRMRLGMRKLKDVL | -2.35 |
| HMTAIKAGDLVKITGTKYYGGQTIPGWVKNQNWYVQEVSGDRAVINKNESGTNAIMSPIRVSDLTPVS | 0.036 |
| HMTALPPNVSIDSDERRLLEAIGFDPVDMDVLARDGQFSSVDLFRLLVSLELKGLVENQHGAYQRL | -1.85 |
| HMTALSAREHEVLQLITRGYTADEIAAMLQISRHTALTYVRRIYSKLKVNSKAEAIFEVRQR | -0.926 |
| HMTANPHKPEPLQIDTSDITPGVTVIHKAFGNGTVVSVDNNRILIDFDGIEKKFPFPGAFLYGFLQK | -0.547 |
| HMTAPDDFIRAEVTASGKNGMAVAELSKRVRTRFKSFKVRELGYPHLAGYLADVEGVRVYKQGRENWVAK | -0.899 |
| HMTAQASDIEKVLQVIETLGFRGHTLPGENRTAIGVTGNRGSIDPAHFENLPGVADAIRVTKPY | -0.0976 |
| HMTARPTLEKLKYMIHEAGITENSLKVIVATKGHYGLDADISTYSDDFITRWIIPNWTKIVQTISNNK | -1.81 |
| HMTASSYMGMQLGRLEELLKKEVLSLSEKTELKDLISDFDKIPEVVSPKIIGRYLQLKNQHFAKINA | -0.437 |
| HMTAVVPNFKGKLISELSNFVADKNVRYTIIDSIYDPEEKSGIVIKQDPEEKTQVKHNRIIYLYVTST | -1.51 |
| HMTDDFAGRFNELLIHNQETAVTAATRLEVSPAVITKWRQGKSIPSGEYIKRIVETYHVSADYLLGVIDTP | -0.838 |
| HMTDEEFSRIVKYTAVRYGINLYHKKVMVEGRLSNYLAANGFKSYTEYMDRVEADYTGQEAQNLINILTT | -2.53 |
| HMTDFDPDGREKLIKVQKALHFNNHQLADALRVGQATFSSYIYGRVAAGVPVRVVKAAEDLLKNSKATV | -0.531 |
| HMTDFDWSLFTQQLKRFNLFLSYDDREKLQTFQTLYGLNELDLAEYVAKASAGEKNGLNFNYLRQLINKEK | -1.46 |
| HMTDFNTFSDAIIAAVGSRASGLKVVDNAVSVMVDVSGLNEDQRVEIEADVRAAAEHAGAQSVRIMLT | -0.58 |
